Measured values reported in patent US20250186620A1 (DUKE UNIVERSITY, published 2025).

T1: Wild-type Connexin35 (Cx35) of Morone americana (Morone americana)
T1 construct: Connexin hemichannel (hexamer) expressed in HEK 293FT cells; In C. elegans it was expressed as GFP or mCherry fusion; also called Cx35WT; not shown: C-terminal fluorescent protein fusion (mEmerald or RFP670 in FETCH)
T1 chain: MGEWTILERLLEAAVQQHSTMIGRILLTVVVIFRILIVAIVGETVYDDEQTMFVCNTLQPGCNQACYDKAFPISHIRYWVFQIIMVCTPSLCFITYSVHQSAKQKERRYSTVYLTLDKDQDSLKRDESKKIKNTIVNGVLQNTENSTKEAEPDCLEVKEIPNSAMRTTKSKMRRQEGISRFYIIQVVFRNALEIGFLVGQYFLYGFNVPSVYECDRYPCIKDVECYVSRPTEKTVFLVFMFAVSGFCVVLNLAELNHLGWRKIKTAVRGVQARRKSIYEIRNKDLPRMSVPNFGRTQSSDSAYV

T2: Cx35E224H (Morone americana Cx35 mutant E224H) (Morone americana)
T2 construct: Extracellular loop mutant of the screening library; not shown: C-terminal fluorescent protein fusion (mEmerald or RFP670 in FETCH)
T2 chain: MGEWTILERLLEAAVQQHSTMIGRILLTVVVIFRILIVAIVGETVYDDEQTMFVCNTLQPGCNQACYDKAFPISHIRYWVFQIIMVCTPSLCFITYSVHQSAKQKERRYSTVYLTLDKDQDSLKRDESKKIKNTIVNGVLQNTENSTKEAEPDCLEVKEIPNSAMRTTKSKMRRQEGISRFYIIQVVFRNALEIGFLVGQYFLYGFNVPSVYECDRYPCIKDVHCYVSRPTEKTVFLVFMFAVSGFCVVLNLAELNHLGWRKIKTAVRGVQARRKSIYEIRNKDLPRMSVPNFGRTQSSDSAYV

T3: Cx35E224K (Morone americana Cx35 mutant E224K) (Morone americana)
T3 construct: Extracellular loop mutant of the screening library; not shown: C-terminal fluorescent protein fusion (mEmerald or RFP670 in FETCH)
T3 chain: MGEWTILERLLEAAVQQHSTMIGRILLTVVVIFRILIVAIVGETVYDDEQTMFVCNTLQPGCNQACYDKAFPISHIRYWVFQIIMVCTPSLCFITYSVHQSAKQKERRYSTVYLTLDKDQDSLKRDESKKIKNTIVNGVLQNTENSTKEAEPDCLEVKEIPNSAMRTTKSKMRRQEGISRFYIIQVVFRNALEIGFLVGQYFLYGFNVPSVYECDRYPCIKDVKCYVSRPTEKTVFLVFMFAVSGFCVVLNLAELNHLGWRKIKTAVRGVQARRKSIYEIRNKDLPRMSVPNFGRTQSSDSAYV

T4: Cx35E224R (Morone americana Cx35 mutant E224R) (Morone americana)
T4 construct: Extracellular loop mutant of the screening library; not shown: C-terminal fluorescent protein fusion (mEmerald or RFP670 in FETCH)
T4 chain: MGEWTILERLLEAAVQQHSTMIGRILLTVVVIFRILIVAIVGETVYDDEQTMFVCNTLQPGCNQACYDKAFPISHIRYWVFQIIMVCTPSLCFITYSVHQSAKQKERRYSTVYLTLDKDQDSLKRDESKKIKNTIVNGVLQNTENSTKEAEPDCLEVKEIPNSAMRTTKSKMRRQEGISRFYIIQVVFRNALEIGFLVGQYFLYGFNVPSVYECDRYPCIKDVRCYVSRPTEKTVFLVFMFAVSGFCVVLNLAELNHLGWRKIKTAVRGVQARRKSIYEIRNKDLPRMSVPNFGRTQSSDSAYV

B1: human connexin36 (Cx36) (other, UniProt Q9UKL4 1-321, looked up)
chain: MGEWTILERLLEAAVQQHSTMIGRILLTVVVIFRILIVAIVGETVYDDEQTMFVCNTLQPGCNQACYDRAFPISHIRYWVFQIIMVCTPSLCFITYSVHQSAKQRERRYSTVFLALDRDPPESIGGPGGTGGGGSGGGKREDKKLQNAIVNGVLQNTENTSKETEPDCLEVKELTPHPSGLRTASKSKLRRQEGISRFYIIQVVFRNALEIGFLVGQYFLYGFSVPGLYECNRYPCIKEVECYVSRPTEKTVFLVFMFAVSGICVVLNLAELNHLGWRKIKLAVRGAQAKRKSIYEIRNKDLPRVSVPNFGRTQSSDSAYV
notes: whole, on cells; Hemichannel expressed in HEK 293FT cells for FETCH; also called GJD2; not shown: C-terminal fluorescent protein fusion (mEmerald or RFP670 in FETCH)

Tests used:
[1] = target: T1, Wild-type Connexin35 (Cx35) of Morone …; experiment: heterotypic FETCH
Method: (§1) Complete FETCH methodology is outlined in Ransey et. al. 2021 (Ransey E, et al. (2021) BioRxiv). Briefly, replica multi-well plates with HEK 293FT cells were transfected with either of the two connexin proteins being evaluated for docking. Following a transfection incubation period, experimental counterparts were combined, replated, and further incubated for about 20 hr to about 24 hrs, allowing cells to make contacts and potentially generate connexosomes. Co-plated samples were trypsinized, fixed in suspension and analyzed via flow cytometry. Flow cytometry data was processed with two selection gates prior to their fluorescence evaluation. First, putative HEK cells were identified by evaluating sample forward vs. side scatter area. Next, single cells were identified as the putative cells that maintained a linear correlation of forward scatter height to forward scatter area. Finally, the dual fluorescence (mEmerald vs. RFP670) profiles of each sample was generated, and the FETCH score was defined as the proportion of dual-labeled fluorescent cells that develop in a co-plated sample.

[2] = target: B1; experiment: FETCH (flow cytometry, % dual-labelled HEK 293FT cells), heterotypic
Method: as §1

[3] = target: T5, human connexin43 (Cx43) (human, UniProt P17302 2-382); experiment: heterotypic FETCH
T5 construct: whole, on cells; Hemichannel expressed in HEK 293FT cells for FETCH; also called GJA1; not shown: C-terminal fluorescent protein fusion (mEmerald or RFP670 in FETCH)
Method: as §1

[4] = target: the molecule itself; experiment: homotypic FETCH screen
Method: as §1
(§2) For screening analysis, five FETCH replicates were obtained for each condition (mutation). These scores were benchmarked against scores for Cx36 and Cx45 (FETCH=1.2±0.1%, n=54 replicates). To quantitatively determine whether a connexin pair docked, FETCH scores were determined for the dual fluorescence of cells under conditions where docking was not anticipated. These conditions included pairs of connexins previously established to not show docking: (i) Cx36 and Cx45 (FETCH=0.7±0.0%, n=59 replicates), (ii) homotypic Cx23 (FETCH=0.9±0.4%, n=6 previously collected replicates (Ransey E, et al. (2021) BioRxiv), and (iii) Cx36 and Cx43 (FETCH=1.2±0.2%, n=10 previously collected replicates (Ransey E, et al. (2021) BioRxiv), and under conditions for which cells were transfected with cytoplasmic fluorophores rather than tagged connexins (FETCH=4.4±0.6%, n=17 previously collected replicates (Ransey E, et al. (2021) BioRxiv).

[5] = target: the molecule itself; experiment: FETCH (flow cytometry, % dual-labelled HEK 293FT cells), homotypic
Method: as §1

[6] = target: T5, human connexin43 (Cx43); experiment: FETCH (flow cytometry, % dual-labelled HEK 293FT cells), heterotypic, n=6
Method: as §1

[7] = target: T2, Cx35E224H (Morone americana Cx35 mutant …); experiment: heterotypic FETCH; score higher than for the wild type Cx34.7WT/Cx35WT pair
Method: as §1, §2

[8] = target: T3, Cx35E224K (Morone americana Cx35 mutant …); experiment: as above
Method: as §1, §2

[9] = target: T4, Cx35E224R (Morone americana Cx35 mutant …); experiment: as above
Method: as §1, §2

[10] = target: T6, human connexin45 (Cx45) (human, UniProt P36383 1-396); experiment: FETCH (flow cytometry of co-plated HEK 293FT cells), benchmark pair
T6 construct: whole, on cells; Hemichannel expressed in HEK 293FT cells for FETCH; non-docking benchmark partner of Cx36; also called GJC1; not shown: C-terminal fluorescent protein fusion (mEmerald or RFP670 in FETCH)
Method: as §1
For screening analysis, five FETCH replicates were obtained for each condition (mutation). […] To quantitatively determine whether a connexin pair docked, FETCH scores were determined for the dual fluorescence of cells under conditions where docking was not anticipated. […]

T5 sequence (P17302 2-382): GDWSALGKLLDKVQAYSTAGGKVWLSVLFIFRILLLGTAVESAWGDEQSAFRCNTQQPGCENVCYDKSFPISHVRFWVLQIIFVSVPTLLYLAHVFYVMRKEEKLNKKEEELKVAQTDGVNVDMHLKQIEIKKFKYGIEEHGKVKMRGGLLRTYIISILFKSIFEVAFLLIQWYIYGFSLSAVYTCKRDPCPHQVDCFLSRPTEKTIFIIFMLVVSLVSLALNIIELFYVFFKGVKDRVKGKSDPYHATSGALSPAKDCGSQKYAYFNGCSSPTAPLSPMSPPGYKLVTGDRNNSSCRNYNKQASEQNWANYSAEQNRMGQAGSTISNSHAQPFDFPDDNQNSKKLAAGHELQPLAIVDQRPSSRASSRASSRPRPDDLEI
T6 sequence (P36383 whole entry, the tested form may be a part): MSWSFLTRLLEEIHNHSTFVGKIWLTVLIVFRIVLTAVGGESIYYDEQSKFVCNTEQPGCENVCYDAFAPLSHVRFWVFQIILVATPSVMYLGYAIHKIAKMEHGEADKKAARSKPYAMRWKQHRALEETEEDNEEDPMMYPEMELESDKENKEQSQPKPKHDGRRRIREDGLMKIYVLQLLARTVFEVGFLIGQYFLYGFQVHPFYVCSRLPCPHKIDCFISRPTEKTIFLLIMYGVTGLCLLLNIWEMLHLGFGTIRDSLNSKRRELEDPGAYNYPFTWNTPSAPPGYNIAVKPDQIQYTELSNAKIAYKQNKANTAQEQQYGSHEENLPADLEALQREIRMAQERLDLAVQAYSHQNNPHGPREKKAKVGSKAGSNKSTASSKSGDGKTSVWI

Row | binding result [1] | FETCH score [2] | binding result [3] | FETCH score [6] | binding result [7] | binding result [8] | binding result [9] | binding result [10] | Binder | binding result [4] | FETCH score [5]
1 | binds | 11.9% |  |  |  |  |  |  | Wild-type Connexin34.7 (Cx34.7) of Morone americana (other, In C. elegans it was expressed as GFP or mCherry fusion; also called Cx34.7WT; not shown: C-terminal fluorescent protein fusion (mEmerald or RFP670 in FETCH)) MGEWTILERLLEAAVQQHSTMIGRILLTVVVIFRILIVAIVGETVYEDEQAMFICNTLQPGCNQACYDKAFPISHIRYWVFQIILVCTPSLCFITYSVHQSAKQKDRRYSFLYPIMERDYGGRDGARKLRNINGILVQHGGDGGGGKEEPDCLEVKEIPNAPRGLTHGKSSKVRRQEGISRFYIIQVVFRNALEIGFLAGQYFLYGFSVPGIFECDRYPCLKEVECYVSRPTEKTVFLVFMFAVSGICVVLNLAELNHLGWRKIKAAIRGVQARRKSICEIRKKDMAHLSQPPNLGRTQSSESAYV |  | 
2 |  | 22.8% | no binding | 1.3% | binds | binds | binds |  | Cx34.7K222Q (Morone americana Cx34.7 mutant K222Q) (other, Extracellular loop mutant of the screening library; not shown: C-terminal fluorescent protein fusion (mEmerald or RFP670 in FETCH)) MGEWTILERLLEAAVQQHSTMIGRILLTVVVIFRILIVAIVGETVYEDEQAMFICNTLQPGCNQACYDKAFPISHIRYWVFQIILVCTPSLCFITYSVHQSAKQKDRRYSFLYPIMERDYGGRDGARKLRNINGILVQHGGDGGGGKEEPDCLEVKEIPNAPRGLTHGKSSKVRRQEGISRFYIIQVVFRNALEIGFLAGQYFLYGFSVPGIFECDRYPCLQEVECYVSRPTEKTVFLVFMFAVSGICVVLNLAELNHLGWRKIKAAIRGVQARRKSICEIRKKDMAHLSQPPNLGRTQSSESAYV | no binding | 0.4%
3 |  |  |  |  |  |  |  | no binding | B1 |  | 
